Kd data for one molecule are collected here from article PMC9628480, “Discovery and structural characterization of chicoric acid as a SARS-CoV-2 nucleocapsid protein ligand and RNA binding disruptor”.

For the data set, the target named is SARS-CoV-2 nucleocapsid (N) protein, full-length (SARS-CoV-2 (protein amplified from …, UniProt A0A6B9VLF5 1-419)). The data set is described as follows: fluorescence polarization. The conditions noted are these: protein: recombinant; tags: 6xHis (pET28a-TEV), not cleaved; chain copies: 2; label: 5'-FITC; hairpin. For orientation: Fluorescence polarisation rises when a labelled molecule tumbles more slowly, as on binding a larger partner.

Broadly, the Kd is the constant that tells how readily two partners part at equilibrium. With CACUCACUGUCAAAAAAGAUGGUAGAGU (structured_RNA) [RNA2 (UUUUUU to AAAAAA)], the Kd amounted to 498 ± 43.2 nM.
